Laboratory results from a protein production outcome set (Wang et al. 2014).
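Further: failed if final PepcDB status was selected cloned or expressed and not failed if soluble or beyond.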

Experiment: label from the status in PepcDB records
For “MATGQDRVVALVDMDCFFVQVEQRQNPHLRNKPCAVVQYKSWKGGGIIAVSYEARAFGVTRSMWADDAKKLCPDLLLAQVRESRGKANLTKYREASVEVMEIMSRFAVIERASIDEAYVDLTSAVQERLQKLQGQPISADLLPSTYIEGLPQGPTTAEETVQKEGMRKQGLFQWLDSLQIDNLTSPDLQLTVGAVIVEEMRAAIERETGFQCSAGISHNKVLAKLACGLNKPNRQTLVSHGSVPQLFSQMPIRKIRSLGGKLGASVIEILGIEYMGELTQFTESQLQSHFGEKNGSWLYAMCRGIEHDPVKPRQLPKTIGCSKNFPGKTALATR”, the protein production was “failed”.
In the case of “MATIQAFWRFSRPHTIIGTTLSVWAVYLLTILGDGNSVNSPASLDLVFGAWLACLLGNVYIVGLNQLWDVDIDRINKPNLPLANGDFSIAQGRWIVGLCGVASLAIAWGLGLWLGLTVGISLIIGTAYSVPPVRLKRFSLLAALCILTVRGIVVNLGLFLFFRIGLGYPPTLITPIWVLTLFILVFTVAIAIFKDVPDMEGDRQFKIQTLTLQIGKQNVFRGTLILLTGCYLAMAIWGLWAAMPLNTAFLIVSHLCLLALLWWRSRDVHLESKTEIASFYQFIWKLFFLEYLLYPLALWLPNFSNTIF”, the protein production was “failed”.
In the case of “MATKHEQILTYIDSLPVGEKISVRRIAKEMKVSEGTAYRAIKEAENKGFVSTIERVGTIRIEQKKKENIEKLTYAEVVNVIDGQVLGGRAGLHKTLNKFVIGAMELDAMMRYTAAGNLLIVGNRINAHRQALEAGAAVLVTGGFNTDDSIVQLADELELPILSTSYDTFTVAAMINRAIYDQLIKKEIVLVEDILTPADRTVYLSPKDKLEKWYEKNFETGHGRFPVVDDQMKIHGILTSKDIAGHDRNASIEKVMTKNPVTVIGKTSVASAAQMMVWEGIEVLPVTDGHQKLIGMISRQDVLKALQMIQKQPQVGEKLDDIVSRGFKDEGDDKEDQTVYEYEVTPQMTNQLGTISYGVFTTILTQAANRFLRSKKRGELVIESITIFFLKPVQMESVIEVKPRILEAGRKFGKMEVEVHSQGHIVSKAMLMVQLMERS”, the protein production was “failed”.
In the case of “MATLPASKSASKVALTSEVEDEGIKEHTFQEIEKLQDLGINAADINKLKGSGYCTILSLIQTTKKELCNVKGISEAKVDKILEVASKIENCSSFITANELVQKRSKVLKITTGSTVFDQTLGGGIESMCITELFGENRCGKTQVCHTLAVTAQLPKSLNGGNGKVCYIDTEGTFRPEKVCKIAERYGLDGEAVLDNILYARAFTHEHLYQLLAISAAKMCEEPFALLVVDSIISLFRVDFSGRGELSERQQKLNKTMSILSKLSEQFNIAILITNQVMSDPGATMTFIANPMKPVGGHVIGHASTIRLSLRKGKGDQRVCKVYDAPNLPEVECIFQLSDKGVIDATD”, the protein production was “failed”.
In the case of “MATNLIGLDTTQSQKLANALNNLLANYQVFYMNTRGYHWNIQGKEFFELHAKFEEIYTDLQLKIDELAERILTLSARPMHSFSGYLKAAQIKEHTDSIDGRSSMQGLVDGFSILLHQQRDILELAGETGDEGTSALMSDYIREQEKLVWMLNAWLK”, the protein production was “not failed”.
For “MATPTEHEDLSEQEVTEDEFKTPKIRETPEDIKLEAIVNTIAFHPKQDILAAGDIDGDIYLFSYSCTEGENKELWSSGHHLKSCRKVLFSSDGQKLFSVSKDKAIHIMDVEAGKLETRIPKAHKVPINAMLLIDENIFATGDDEGTLKVWDMRKGTSFMDLKHHEDYISDITIDQAKRTLLTSSGDGTLGVFNIKRRRFELLSEIQNGDLTSVSIMKRGRKVVCGSGEGTIYIFNWNGFGATSDRFAVQAESVDCIVPITDSILCAASTDGVIRAINILPNRVVGSIGQHVGEAIEEIARCRDTHFLASCAHDELIKFWDISSLPDEKVNDYRRRKKKDRRLKALSNKAFDTGQNFFAGLLDTTEENGKEGENDEDDDDEDSDSGSD”, the protein production was “not failed”.
In the case of “MATQYGALSYSSRTQSPARVMTRVMVEARRVLLGALATAAVVAFMSAVGWVALLALTVTIPFATIVVALAMAIRHFRQDRRALA”, the protein production was “failed”.
In the case of “MATSRLQLEGDDSVHLHITHANLKSFSADARFSPQMSVEAVKEKLWKKCGTSVNSMALELYDDSGSKVAVLSDDSRPLGFFSPFDGFRLHIIDLDPSSVTTGGWLEDTSLVEKYNISEEDYAKRTDSFRKFKEKRVSQNPVAAEAKTKENYMEDLCANIKVGDRCQVEPGEKRGMVKYVGRAESLGPGYWVGIQYDEPLGKHDGMVKGTRFFECPRLQGGMVRPDKVKVGDYPERDPFEEDEI”, the protein production was “failed”.
With “MATSSTQLLLSSSSLFHSQITKKPFLLPATKIGVWRPKKSLSLSCRPSASVSAASSAVDVNESVTSEKPTKTLPFRIGHGFDLHRLEPGYPLIIGGIVIPHDRGCEAHSDGDVLLHCVVDAILGALGLPDIGQIFPDSDPKWKGAASSVFIKEAVRFRRLP” the protein production was “failed”.
In the case of “MATTLPRITARVDVDTQDLLAKAAALAGMSSINSFVLNAAIEKAKQVIEREQALKLSQADAVLLMEALDNPAVVNAKLKLASERYESKTQ”, the protein production was “failed”.
For “MAVEQPTAHAGGQSPAHAGEQSRIHNIGYRNYDGPRLGRAYARRSLYSQSLRGAYGLGRSVKSKVLPMLLFVVMCVPALIMVAVAVATKAKDLPVDYTRYAIIMQAVIGLYVASQAPQSVSRDLRFKTVPLYFSRPIETADYVRAKYAALASAMFILTAAPLLVLYVGALLAKLDFTDQTKGFAQGLVSVALLSLLFAGIGLVISAVTPRRGFGIAAVIAVLTISYGAVSTVQAIADAQNSTSAVPWLGLFSPVTLIDGMQTAFLGASSSFPGEAGPSSAQGVVFLIVVLGLIAGCYGLLMRRYRKVGL”, the protein production was “failed”.
In the case of “MAVGDQTEQNYLPKKKKSETEDDKRRKKIVPGSLLKAVVRPGGGDSSPVDGDQVIYHCTVRTLDGVVVESTRSESGGRGVPIRDVLGNSKMILGLLEGIPTMHKGEIAMFKMKPEMHYAEIDCPVSAPENFPKDDELHFEIELLDFSKAKIASDDLGVIKKILNEGEGWESPREPYEVKARISAKSGDGHVIFSHTEEPYFFTFGKSEVPKGLEIGIGTMARKEKAVIYVRKQYLTESPLLHIDQDLEEVHFEVELVHFIQVRDMLGDGRLIKRRIRDGRGEFPMDCPLQDSRLSVHYKGMLLNEEKTVFYDSKIDNNDQPLEFSSGEGLVPEGFEMCTRLMLPGEIALVTCPPDYAYDKFPRPPGVSEGAHVQWEIELLGFETPRDWTGLNFQSIMDEADKIRSTGNRLFKEGKFELAKAKYEKVLREFNHVNPQDEDEGKIFGDTRNMLHLNVAACLLKMGEWRKSIETCNKVLEAKPGHVKGLYRRGMAYIAGGEYDDARNDFNMMIKVDKSSEADATAALLKLKQKEQEAESKARKQFKGLFDKRPGEITEVGSEIREESKTIEEVDETKDNDDDETLEEEGATTVSTERKRKWSEKAWPFLKNVMLQIGIQLGVVLIGILIFQFVSAKFT”, the protein production was “failed”.
For “MAVLLSSFSPLGINIDMNKNLGVSYSSFPQIHLFKGSTPLRVRTFVVSSRKNSGTGLASEDKKLLLERYGYDANDDFGSQSKKARRKEEKMSGRNSQQVEEVVVVQPRTTHRLLQVLAGTAKRKKLLSLKGMDVRPMMEVVKGAAFGILQAAGGCPTSLRPGRWLDLYSGTGSVGIEAISRGCSEAHFVEMDPWVVSNVLQPNLEHTGFVDASVIHTARVENFLERADKLVGKDGVFDYISVTPPYMEVDYEVLMDQIAKSPAIGENTFILVEYPSRTTMLDSCGCLEKMTDRRFGRTHLAIYGPKWAQKPRKS”, the protein production was “failed”.
In the case of “MAVLSMLGIIDAKPKVGYFYLGQYHASIGTSHFEKMTVSEIMGIPLTVHQKDSVYDVIVHIFMEDAGCAFILDDDDFLCGVVSRKDLLKISIGGGDLSKMPIGMVMTRMPHVTTVLENESLFAAADKLVSRKVDSLPVVRHDKQYPEKFKVIGKLSKTILASLFLEIRDY”, the protein production was “failed”.
With “MAVPSFFTLMNLLCGFMALTQVADAAFVLACWLIVLAGFFDLLDGVMARLTGADSPFGVQLDSLSDIVSFGVAPSFLLYGYVLDTFNPLGMIVAALPALCGAVRLARYNMTADESDKEGFEGLPIPGQAIAVVALILAAENSAWDGRFALDSLRVVLPVVIVLSGLMVSSIRFDAIPMPSLEAVRTHPSKIAAYGLAGLLIVGLQERGLLIVLTAYLLHGVGRALYKLMRALVAPVPDERLGS” the protein production was “failed”.
